According to patent publication US20210393685A1 (TRUSTEES OF COLUMBIA UNIVERSITY IN THE CITY OF NEW YORK, published 2021):

Molecular target: T1, CD33 on cord blood CD34+ cells (human, UniProt P20138 18-364)
T1 construct: whole, on cells; also called CD33 antigen
Experiment: flow cytometry on CD33-expressing cord blood CD34+ cells, detected with FITC anti-Myc antibody
Description: The binding of the anti-CD33-ULBP1 chimera with CD33 antigen-expressing cord blood CD34+ cells or NKG2D-expressing primary NK cells was tested using flow cytometry. Briefly, primary NK cells were purified from peripheral blood of donors. CD34+ cells were purified from cord blood of donors. Purified cells were incubated with the elute from the mock, chimera 1 or chimera 2 proteins purified from the cell supernatant. The cells were also incubated with FITC-conjugated anti-Myc antibody and analyzed using a flow cytometer.

T1 sequence (P20138 18-364): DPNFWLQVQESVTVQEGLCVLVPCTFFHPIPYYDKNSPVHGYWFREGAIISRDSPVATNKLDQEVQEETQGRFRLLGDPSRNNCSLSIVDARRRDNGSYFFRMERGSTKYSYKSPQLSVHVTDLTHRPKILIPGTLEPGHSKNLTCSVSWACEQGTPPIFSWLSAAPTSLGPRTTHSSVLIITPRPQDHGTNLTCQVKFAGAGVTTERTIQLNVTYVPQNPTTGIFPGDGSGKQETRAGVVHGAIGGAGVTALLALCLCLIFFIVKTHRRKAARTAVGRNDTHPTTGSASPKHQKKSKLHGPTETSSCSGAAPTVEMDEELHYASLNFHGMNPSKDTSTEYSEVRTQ

| binding result | Binder |
| --- | --- |
| binds | anti-CD33-ULBP1 chimera 2 (CD33-ULBP1-2, with proline) (other, also called αCD33-ULBP1 chimera 2) EIVLTQSPGSLAVSPGERVTMSCKSSQSVFFSSSQKNYLAWYQQIPGQSPRLLIYWASTRESGVPDRFTGSGSGTDFTLTISSVQPEDLAIYYCHQYLSSRTFGQGTKLEIKRGSTSGSGKPGSGEGSTKGQVQLQQPGAEVVKPGASVKMSCKASGYTFTSYYIHWIKQTPGQGLEWVGVIYPGNDDISYNQKFQGKATLTADKSSTTAYMQLSSLTSEDSAVYYCAREVRLRYFDVWGQGTTVTVSSSSSAGGGGSGGGGSGGGGSPWVDTHCLCYDFIITPKSRPEPQWCEVQGLVDERPFLHYDCVNHKAKAFASLGKKVNVTKTWEEQTETLRDVVDFLKGQLLDIQVENLIPIEPLTLQARMSCEHEAHGHGRGSWQFLFNGQKFLLFDSNNRKWTALHPGAKKMTEKWEKNRDVTMFFQKISLGDCKMWLEEFLMYWEQMLDPTKPPSLAPGEQKLISEEDLHHHHHH |
| binds | anti-CD33-ULBP1 chimera 1 (CD33-ULBP1-1) (other, also called αCD33-ULBP1 chimera 1) EIVLTQSPGSLAVSPGERVTMSCKSSQSVFFSSSQKNYLAWYQQIPGQSPRLLIYWASTRESGVPDRFTGSGSGTDFTLTISSVQPEDLAIYYCHQYLSSRTFGQGTKLEIKRGSTSGSGKPGSGEGSTKGQVQLQQPGAEVVKPGASVKMSCKASGYTFTSYYIHWIKQTPGQGLEWVGVIYPGNDDISYNQKFQGKATLTADKSSTTAYMQLSSLTSEDSAVYYCAREVRLRYFDVWGQGTTVTVSSSSSAGGGGSGGGGSGGGGSWVDTHCLCYDFIITPKSRPEPQWCEVQGLVDERPFLHYDCVNHKAKAFASLGKKVNVTKTWEEQTETLRDVVDFLKGQLLDIQVENLIPIEPLTLQARMSCEHEAHGHGRGSWQFLFNGQKFLLFDSNNRKWTALHPGAKKMTEKWEKNRDVTMFFQKISLGDCKMWLEEFLMYWEQMLDPTKPPSLAPGEQKLISEEDLHHHHHH |
